Data from patent US20220275067A1 (PROTHENA BIOSCIENCES, published 2022).
Where a chain is given by its changes, count along the chain named.

B1: hu9F5VHv9/hu9F5VLv8_DIM15 (antibody, V domains shown)
VH: EVQLVQSGAEVKKPGATVKISCKASGFNIKDDYMNWVQQRPGKGLEWIGWIDPENGDTEYASKFQGRATMTADTSTNTAYMELSSLRSEDTAVYYCTTSNGWGQGTLVTVSS
VL: DIQMTQSPFSLPVTPGESASISCRSSKSLGHSNGITYLYWYGQKPGQSPQLLIYQGSNTASGVPNRFSSSGSGTDFTLKISRVEAEDVGVYYCAQNGELPLTFGQGTKLEIK
B2: hu9F5VHv9/hu9F5VLv8_DIM16 (antibody, V domains shown)
VH: B1 VH
VL: B1 VL with G97L
B3: hu9F5VHv9/hu9F5VLv8_DIM17 (antibody, V domains shown)
VH: B1 VH
VL: B1 VL with G30S, G97I
B4: hu9F5VHv9/hu9F5VLv8_DIM18 (antibody, V domains shown)
VH: B1 VH
VL: B1 VL with G30D, T59R, G97I
B5: hu9F5VHv9/hu9F5VLv8_DIM19 (antibody, V domains shown)
VH: B1 VH
VL: B1 VL with G30S, G42I, G56I, T59R, G97I
B6: hu9F5VHv9/hu9F5VLv8_DIM20 (antibody, V domains shown)
VH: B1 VH
VL: B1 VL with G30S, G42Q, G56I, T59G, G97I
B7: hu9F5VHv9/hu9F5VLv8_DIM21 (antibody, V domains shown)
VH: B1 VH
VL: B1 VL with G30S, G42Q, G56I, T59G, G97L
B8: hu9F5VHv9/hu9F5VLv8_DIM22 (antibody, V domains shown)
VH: B1 VH
VL: B1 VL with G30S, G42Q, G56E, T59R, G97I
B9: hu9F5VHv9/hu9F5VLv8_DIM23 (antibody, V domains shown)
VH: B1 VH
VL: B1 VL with G42Q, G56E, T59G, G97I
B10: hu9F5VHv9/hu9F5VLv8_DIM24 (antibody, V domains shown)
VH: B1 VH
VL: B1 VL with G42I, G56E, T59R, G97I
B11: hu9F5VHv9/hu9F5VLv8_DIM25 (antibody, V domains shown)
VH: B1 VH
VL: B1 VL with G42I, G56E, T59R
B12: hu9F5VHv9/hu9F5VLv8_DIM26 (antibody, V domains shown)
VH: B1 VH
VL: B1 VL with G30I, G42I, G56E, T59R, G97L
B13: hu9F5VHv9/hu9F5VLv8_DIM27 (antibody, V domains shown)
VH: B1 VH
VL: B1 VL with G30L, G42Q, T59R, G97I
B14: hu9F5VHv9/hu9F5VLv8_DIM28 (antibody, V domains shown)
VH: B1 VH
VL: B1 VL with G30S, G42L, T59R, G97I
B15: hu9F5VHv9/hu9F5VLv8_DIM29 (antibody, V domains shown)
VH: B1 VH
VL: B1 VL with G30S, G42Q, G56M, T59R, G97I
B16: hu9F5VHv9/hu9F5VLv8_DIM30 (antibody, V domains shown)
VH: B1 VH
VL: B1 VL with G30S, G42Q, T59L, G97I
B17: hu9F5VHv10/hu9F5VLv9_DIM1 (antibody, V domains shown)
VH: B1 VH with Q38K, G42E
VL: B1 VL with G30S, G42Q, T59G, N65D, G97I
B18: hu9F5VHv10/hu9F5VLv9_DIM2 (antibody, V domains shown)
VH: B1 VH with Q38K, G42E
VL: B1 VL with G30S, G42Q, T59R, N65D, G97I
B19: hu9F5VHv10/hu9F5VLv9_DIM4 (antibody, V domains shown)
VH: B1 VH with Q38K, G42E
VL: B1 VL with G30S, G42Q, T59R, N65D
B20: hu9F5VHv10/hu9F5VLv9_DIM5 (antibody, V domains shown)
VH: B1 VH with Q38K, G42E
VL: B1 VL with G42Q, T59R, N65D, G97I
B21: hu9F5VHv10/hu9F5VLv9_DIM8 (antibody, V domains shown)
VH: B1 VH with Q38K, G42E
VL: B1 VL with G42Q, G56K, T59R, N65D, G97I
B22: hu9F5VHv10/hu9F5VLv9_DIM10 (antibody, V domains shown)
VH: B1 VH with Q38K, G42E
VL: B1 VL with G30S, G42Q, G56K, T59G, N65D, G97I
B23: hu9F5VHv10/hu9F5VLv9_DIM11 (antibody, V domains shown)
VH: B1 VH with Q38K, G42E
VL: B1 VL with T59R, N65D, G97I
notes: also called H10L9-DIM11; H10L9DIM11
B24: hu9F5VHv10/hu9F5VLv9_DIM13 (antibody, V domains shown)
VH: B1 VH with Q38K, G42E
VL: B1 VL with T59R, N65D, G97L
B25: hu9F5VHv10/hu9F5VLv9_DIM19 (antibody, V domains shown)
VH: B1 VH with Q38K, G42E
VL: B1 VL with G30S, G42I, G56I, T59R, N65D, G97I
B26: hu9F5VHv10/hu9F5VLv9_DIM20 (antibody, V domains shown)
VH: B1 VH with Q38K, G42E
VL: B1 VL with G30S, G42Q, G56I, T59G, N65D, G97I
B27: mouse 9F5 antibody (antibody, mouse IgG1, V domains shown)
VH: EVQLQQSGAELVRPGASVKLSCTASGFNIKDDYMNWVKQRPERGLEWIGWIDPENGDTEYASKFQGKATMTADTSSNTAYLQFSSLTSEDTAVYYCTTSNGWGQGTLVTVST
VL: DIVMTQAAFSNPVTLGTSASISCRSSKSLLHSNGITYLYWYLQKPGQSPQLLIYQMSNLASGVPDRFSSSGSGTDFTLRISRVEAEDVGVYYCAQNLELPLTFGAGTKLELK
modifications: here or on the partner: pHrodo label
B28: mouse 10C12 antibody (antibody, mouse IgG2a, V domains shown)
VH: B27 VH
VL: B27 VL
modifications: here or on the partner: pHrodo label
B29: mouse 17C12 antibody (antibody, mouse IgG2a, V domains shown)
VH: B27 VH with E1K, V2I, G26A, E59K, F83L, T112A
VL: DVVMTQTPLTLSVTIGQPASISCTSSQSLLHSNRKTYLHWLLQRPGQSPKLLIYLVSKLESGVPDRFSGSGSGTDFTLKISRVEAEDLGVYYCLQTTHFPRTFGGGTKLEIK
modifications: here or on the partner: pHrodo label
B30: mouse 2D11 antibody (antibody, mouse IgG2a, V domains shown)
VH: B27 VH
VL: B27 VL
modifications: here or on the partner: pHrodo label

biological target: T1, recombinant human 4R0N tau (human, UniProt P10636 2-758); assay: SPR Biacore T200; antibody captured by anti-human Fc; tau as analyte; global 1:1 fit
T1 construct: also called recombinant 4R0N human tau; P10636-6
T1 sequence (P10636 other isoform, or with tags, fused parts or gaps limits assumed): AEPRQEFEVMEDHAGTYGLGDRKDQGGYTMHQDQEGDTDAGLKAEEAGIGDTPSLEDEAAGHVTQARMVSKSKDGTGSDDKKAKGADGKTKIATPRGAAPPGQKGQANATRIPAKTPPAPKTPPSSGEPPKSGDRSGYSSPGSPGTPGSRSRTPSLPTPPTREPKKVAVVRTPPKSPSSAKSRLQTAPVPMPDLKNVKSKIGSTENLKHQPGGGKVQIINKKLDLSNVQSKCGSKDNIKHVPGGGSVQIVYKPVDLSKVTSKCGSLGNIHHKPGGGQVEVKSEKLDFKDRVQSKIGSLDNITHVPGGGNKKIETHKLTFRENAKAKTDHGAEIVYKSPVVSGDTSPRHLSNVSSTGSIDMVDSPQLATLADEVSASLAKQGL
Method: Target binding analysis was performed using a Biacore T200 to compare the binding affinity of humanized 9F5 variants to recombinant human 4R0N tau. Anti-Human Fc antibody was immobilized on sensor chip CM3 via amine coupling, and humanized 9F5 variants were captured to equivalent levels. Various concentrations of recombinant 4R0N human tau (ranging from 0.02 nM to 12.5 nM) were passed over the captured ligand at 50 μL/min in running buffer (HBS+0.05% P-20, 1 mg/mL BSA) for 180 seconds association/420 seconds dissociation as a single cycle. Data was blank subtracted to both an irrelevant sensor not containing antibody and 0 nM analyte concentration. Analysis was performed using a global 1:1 fit with Biacore Evaluation software.

Row | Binder | Kd | koff | kon
1 | B1 | 0.873 nM | 0.000732 s⁻¹ | 839000 M⁻¹ s⁻¹
2 | B2 | 0.355 nM | 0.000808 s⁻¹ | 2.27e+06 M⁻¹ s⁻¹
3 | B3 | 0.128 nM | 0.000326 s⁻¹ | 2.54e+06 M⁻¹ s⁻¹
4 | B4 | 0.0447 nM | 9.39e-05 s⁻¹ | 2.1e+06 M⁻¹ s⁻¹
5 | B5 | 0.597 nM | 0.00215 s⁻¹ | 3.61e+06 M⁻¹ s⁻¹
6 | B6 | 12.3 nM | 0.0694 s⁻¹ | 5.64e+06 M⁻¹ s⁻¹
7 | B7 | 858 nM | 1.12 s⁻¹ | 1.31e+06 M⁻¹ s⁻¹
8 | B8 | 0.39 nM | 0.000878 s⁻¹ | 2.25e+06 M⁻¹ s⁻¹
9 | B9 | 1.24 nM | 0.0832 s⁻¹ | 6.69e+07 M⁻¹ s⁻¹
10 | B10 | 0.454 nM | 0.000993 s⁻¹ | 2.19e+06 M⁻¹ s⁻¹
11 | B11 | 3.15 nM | 0.0409 s⁻¹ | 1.3e+07 M⁻¹ s⁻¹
12 | B12 | 1.04 nM | 0.004 s⁻¹ | 3.84e+06 M⁻¹ s⁻¹
13 | B13 | 0.16 nM | 0.000385 s⁻¹ | 2.41e+06 M⁻¹ s⁻¹
14 | B14 | 0.0692 nM | 0.000217 s⁻¹ | 3.13e+06 M⁻¹ s⁻¹
15 | B15 | 0.27 nM | 0.000534 s⁻¹ | 1.98e+06 M⁻¹ s⁻¹
16 | B16 | 0.438 nM | 0.000447 s⁻¹ | 1.02e+06 M⁻¹ s⁻¹
17 | B17 | 1.47 nM | 0.00395 s⁻¹ | 2.69e+06 M⁻¹ s⁻¹
18 | B18 | 0.679 nM | 0.00184 s⁻¹ | 2.72e+06 M⁻¹ s⁻¹
19 | B19 | 1.74 nM | 0.00439 s⁻¹ | 2.53e+06 M⁻¹ s⁻¹
20 | B20 | 0.542 nM | 0.000919 s⁻¹ | 1.7e+06 M⁻¹ s⁻¹
21 | B21 | 0.859 nM | 0.00232 s⁻¹ | 2.71e+06 M⁻¹ s⁻¹
22 | B22 | 3.77 nM | 0.026 s⁻¹ | 6.89e+06 M⁻¹ s⁻¹
23 | B23 | 0.163 nM | 0.000287 s⁻¹ | 1.76e+06 M⁻¹ s⁻¹
24 | B24 | 0.508 nM | 0.00116 s⁻¹ | 2.28e+06 M⁻¹ s⁻¹
25 | B25 | 1.97 nM | 0.00688 s⁻¹ | 3.49e+06 M⁻¹ s⁻¹
26 | B26 | 9.62 nM | 0.0334 s⁻¹ | 3.47e+06 M⁻¹ s⁻¹

biological target: pHrodo-labeled tau P301L soluble oligomer, P10636; assay: cell-based or functional assay
Sequence (P10636 other isoform, or with tags, fused parts or gaps P301L P301L): as the sequence (P10636 other isoform, or with tags, fused parts or gaps limits assumed) above

Row | Binder | internalized pHrodo-tau in B103 cells (FACS), antibody at 0.061 µg/mL (% of maximum signal) | internalized pHrodo-tau in B103 cells (FACS), antibody at 0.244 µg/mL (% of maximum signal) | internalized pHrodo-tau in B103 cells (FACS), antibody at 0.98 µg/mL (% of maximum signal) | internalized pHrodo-tau in B103 cells (FACS), antibody at 3.9 µg/mL (% of maximum signal) | internalized pHrodo-tau in B103 cells (FACS), antibody at 15.625 µg/mL (% of maximum signal) | internalized pHrodo-tau in B103 cells (FACS), antibody at 62.5 µg/mL (% of maximum signal)
27 | B27 | 78.1 | 71.7 | 71 | 35.9 | 24.2 | 18.1
28 | B28 | 86.7 | 9.09 | 90.5 | 55.2 | 38.9 | 34.5
29 | B29 | 79.8 | 78.6 | 63.9 | 36.8 | 32.4 | 30.6
30 | B30 | 71.5 | 79.5 | 62.7 | 43 | 28.6 | 28.4
